Measurements as given in the supplement of paper PMC10567573.

B1: NR2F2 (parent)
chain: VAHVESLQEKSQCALEEYVRSQYP
B2: SEPHS2 (parent)
chain: KASGRFGLLQGTSAETSGGLLICL

Variants of: B1
Experiment: protein stability index of a GFP-peptide fusion (GPS, HEK-293T) (PSI 1-6); higher = more stable
Conditions: c terminus: a fixed tail appended
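Further: lentivirally expressed fusions sorted by FACS into six bins by GFP to DsRed ratio, PSI derived from sequencing read proportions per bin multiplied by bin number.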

Protein stability index, by site and new letter:
A2: P 3.76, G 3.53, H 2.98, M 3.03, S 3.87, I 2.56, D 3.85, V 3.27, L 2.85
K10: A 3.45, F 2.08, C 2.54, T 3.92, M 2.97, Q 3.83, S 3.76, D 4.32, G 3.81
L15: Y 4.04, K 4.3, P 4.88, N 4.42, V 4.51, S 4.33, E 5.03, F 3.48
E5: F 1.92, Y 2.13, V 2.48, N 3.38, C 1.97, I 2.41, P 3.04, R 2.63, D 3.18, T 2.93, L 2.37, G 2.9, S 2.53, W 2.14, H 3.02
V1: C 2.66, K 3.66, M 3.89, G 3.79, L 3.5, Y 3.39, T 4.19, S 3.53, R 3.39, D 4.15, P 4.13, W 3.12, H 3.55
A14: C 3.41, Q 3.57, T 3.92, N 4.22, L 2.88, M 3.81, W 2.5, G 3.6, P 4.11, K 3.88, E 4.68
S21: L 3.46, H 3.46, P 4.04, D 3.77, K 3.15
Y18: G 4.33, S 4.25, N 3.91, D 5.05, H 4.2, K 3.94, A 3.97, E 4.7
S6: C 3.48, F 2.71, V 3.33, I 3.07, L 3.22, T 3.55, P 2.94
Q22: C 3.19, G 3.82, R 3.05, K 3.87, A 3.63, Y 3.34, H 3.56, S 3.4, I 2.6
L7: H 3.71, I 3.82, W 3.03, R 3.89, G 3.55, S 4.29, Q 4.08, Y 3.45, D 4.29, K 3.98
S11: V 2.48, G 4.07, H 3.59, D 4.5, N 3.88, E 4.36, I 2.8
P24: N 3.94, M 3.22, T 3.5, E 3.94, A 3.73, W 2.45, S 3.47, R 4.01
R20: L 2.67, K 4.18, E 4.51, M 3.19, T 3.72, I 3.36, V 3.72, F 2.71
V4: H 4.06, D 4.06, A 4.11, M 3.24, W 3.28, S 4.11, P 3.54, Y 2.59, I 3.45, N 4.12
E17: L 2.49, Y 2.11, K 3.81, S 3.36, C 2.89, H 2.76, N 3.08, G 3.45
E16: T 3.29, H 3.16, Y 2.11, G 3.21, D 3.62
V19: G 3.39, F 3.34, L 3.17, R 3.85, C 3.7, A 3.49, K 4.04, Y 3.56, W 3.06, D 4.26, N 4.13, H 4.24
Y23: M 3.46, N 4.74, E 4.71, P 4.15, S 4.36
H3: I 2.55, P 4.09, D 4.6, C 3.42, W 2.26
Q8: L 2.89, P 3.45, A 3.03, F 2.48, N 3.75, W 2.27, V 3.02, I 2.83, E 3.99, M 2.98, Y 2.73
Q12: D 4.32, L 2.68, G 3.7, C 2.45, W 2.64, F 2.86, N 3.54, I 2.49, P 3.12, T 2.88
E9: Y 2.77, W 2.27, P 2.68, L 2.64, N 3.05, G 2.89, H 3.23
C13: D 4.36, A 4.7, I 3.45, Y 3.83, E 4.91, N 4.47, M 3.98, Q 4.55, F 3.58, L 3.92, V 4.05, K 3.99

Variants of: B2
Experiment: as above
Conditions: c terminus: a fixed tail appended

Protein stability index: each site, then its substitutions
G18: P 2.98, N 2.2, Q 2.5, D 2.67, C 3.15, K 2.4
L21: A 1.04, H 2.21, E 1.38, M 2.35, P 2.44, G 1.53, S 2.68, R 1.57, Y 1.32, D 2.12, T 2.38, K 1.45, N 2.94, V 2.08, Q 2.08
S13: V 4.84, D 2.01, K 2.7, M 2.24, Q 1.5
Q10: P 2.19, V 3.11, S 1.71
T12: E 2.52, F 3.31, L 3.67
S17: L 1.18, W 3.02, G 2.08, F 2.78, N 2.67
E15: W 1.66, R 1.37, D 2.1, T 2.48, A 2.02, C 2.82, I 1.91, Y 4.55
G19: H 1.74, I 2.54, Y 1.89, A 3.71, M 2.76, L 2.19, T 1.74, R 2.62, Q 2.1
C23: H 4.17, F 3.71, T 1.32, A 1.93, P 2.02, M 1.49, N 1.79, D 2.02, Q 1.73, K 1.53, S 1.81
I22: P 3.43, H 2.42, Y 1.71, S 2.83, W 1.58, D 1.72, A 1.82, T 2.33, E 2.64, F 4.06, C 2.02, G 2.47, M 1.28, K 2.14
A14: L 2.44, T 1.72, C 1.81, Q 3.85, H 2.43, N 2.93, Y 2.24, E 2.62
L20: N 2.63, A 2.87, E 1.82, Q 2.58, H 2.07, G 1.96, S 1.94, P 2.39, K 1.95
G11: S 1.86, M 2.37, K 3.04, N 2.76, Q 2.54, T 4.7, H 2.12, R 3.92
T16: M 2.06, F 3.47, I 2.5, H 1.88, S 1.61, R 2.58
L24: R 2.55, P 2.8, H 1.89, Y 2.62, K 2.67, F 4.05, T 2.43, N 2.11, E 3.13, S 1.9, A 1.24, D 2.99
